Laboratory results published in article PMC11570697, “2D4, a humanized monoclonal antibody targeting CD132, is a promising treatment for systemic lupus erythematosus” (Signal Transduction and Targeted Therapy, 2024).

B1: 2D4, humanized anti-CD132 monoclonal antibody (antibody, V domains shown)
VH: QVQLVQSGAEVKKPGSSVKVSCKTSGFNIEDIYLHWVRQAPGQGLEWMGRIDPANGKSNYDPKFQGRVTITADTSTSTAYMELSSLRSEDTAVYYCAALRFFGLDYWGQGTLVTVSS
VL: EIVLTQSPATLSLSPGERATLSCRATSSVSYMYWYQQKPGQAPELLIYRTSNLASGIPARFSGSGSGTDYTLTISSLEPEDFAVYYCQQWSSNPPTFGQGTKLEIK

Experiments:
[1] = molecular target: human CD132 (common gamma chain cytokine receptor) (human) (UniProt P31785)
[2] = molecular target: human CD132 (common gamma chain cytokine receptor) (human, UniProt P31785); assay: cell-based or functional assay
Sequence of human CD132 (common gamma chain cytokine receptor) (P31785 23-262): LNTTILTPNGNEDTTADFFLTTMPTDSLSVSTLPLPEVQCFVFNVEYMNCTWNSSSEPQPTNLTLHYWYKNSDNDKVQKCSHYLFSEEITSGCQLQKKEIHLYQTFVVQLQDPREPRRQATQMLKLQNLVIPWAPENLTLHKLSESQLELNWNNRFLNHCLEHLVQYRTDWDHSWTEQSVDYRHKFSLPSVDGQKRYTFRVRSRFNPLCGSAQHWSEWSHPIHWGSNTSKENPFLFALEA

Sequence of human CD132 (common gamma chain cytokine receptor) (human) (P31785 23-262): as above

| Molecule | maximum percent inhibition of IL-2-induced STAT5 phosphorylation in CD3+ T cells of human PBMCs (gradient dilutions, up to 200 nM antibody) [1] [%] | IC50 of blocking human IL-21: IFN-γ secretion by NK92 cells (ELISA), relative to REGN7257 [2] [fold] | IC50 of blocking human IL-21: STAT3 phosphorylation in CD3+ T cells of human PBMCs (flow cytometry), relative to REGN7257 [2] [fold] |
| --- | --- | --- | --- |
| REGN7257, pan CD132 blocking monoclonal antibody | 100 |  |  |
| B1 |  | 10 | < 2 |
